According to article PMC8609364, “A Selective Tether Recruits Activated Response Regulator CheB to Its Chemoreceptor Substrate” (mBio, 2021):

Assays:
[1] = target: Tar4EΔpp-6H L378C, E. coli Tar lacking the carboxyl-terminal pentapeptide, all-glutamyl form, homodimer in … (E. coli, UniProt P07017 1-553, L378C, biotinylated at L378C); experiment: BLI; BLItz; biotinylated Tar homodimers in Nanodiscs held on an avidin sensor tip, CheB or CheBC in solution; 50 mM Tris-HCl pH 7.5, 10% glycerol, 5 mM MgCl2, 50 mM KCl, 2% BSA, 2 mM DTT; global fit, apparent rate constants, KD calculated from kon and koff; settings: both partners purified
[2] = target: Tar4QΔpp-6H L378C, E. coli Tar lacking the carboxyl-terminal pentapeptide, all-glutaminyl form, homodimer in … (E. coli, UniProt P07017 1-553, L378C, biotinylated at L378C); experiment: as above; settings: both partners purified

B1: methylesterase/deamidase CheB from E. coli, low-activity, unphosphorylated form (enzyme, UniProt P07330 1-349, looked up)
chain: MSKIRVLSVDDSALMRQIMTEIINSHSDMEMVATAPDPLVARDLIKKFNPDVLTLDVEMPRMDGLDFLEKLMRLRPMPVVMVSSLTGKGSEVTLRALELGAIDFVTKPQLGIREGMLAYNEMIAEKVRTAAKASLAAHKPLSAPTTLKAGPLLSSEKLIAIGASTGGTEAIRHVLQPLPLSSPALLITQHMPPGFTRSFADRLNKLCQIGVKEAEDGERVLPGHAYIAPGDRHMELSRSGANYQIKIHDGPAVNRHRPSVDVLFHSVAKQAGRNAVGVILTGMGNDGAAGMLAMRQAGAWTLAQNEASCVVFGMPREAINMGGVCEVVDLSQVSQQMLAKISAGQAIRI
notes: CheB methylesterase/deamidase of E. coli, unphosphorylated, from plasmid pCW/cheB; measured with 2 mM DTT in the buffer; also called low-activity CheB; unmodified CheB; source: E. coli K-12 RP3098 with pCW/cheB, purified
Work on B1 yielded a Kd [1] of 850 µM and a Kd [2] of 590 µM.
